Molecular target: T1, γ-secretase cleavage of APP-C99 (CHAPS extracts of HeLa cell membranes) (Homo sapiens, UniProt P49768)
T1 construct: CHAPS extracts of HeLa cell membranes were incubated with the APP-C99flag-tagged substrate; endogenous in cells; host or cells: HeLa cell membranes (CHAPS extract)
Experiment: cell-free assay of in vitro production of amyloid peptides (Aβ) from APP-C99flag-tagged substrate, SDS-PAGE/western blotting
Assay type: biochemical
Details: CHAPS extracts of HeLa cell membranes incubated with APP-C99flag-tagged substrate plus peptide; DMSO control; western blot with antibody recognizing Aβ (FIG. 6)
Excerpt: FIG. 6: Peptides that mimic the binding domains in PS1 or APP inhibit the in vitro production of amyloid peptides (Aβ). The PS1-APP binding is mediated by the C-terminus of PS1 (and the first transmembrane domain of PS1) and part of the APP transmembrane region downstream of the γ-secretase cleavage site (and bearing the FAD-associated mutations affecting the γ-secretase cleavage). Peptides mimicking these domains were synthesized as such or with a conserved transmembrane region (TMR) or palmityol group (palm) attached to it. The amino acid sequence of the transmembrane region is NH2-[…]-COOH (SEQ ID NO:20) and the origin of the TMR is fully described in PCT International Publication WO 02/00882. CHAPS extracts of HeLa cell membranes were incubated with the APP-C99flag-tagged substrate in the presence of DMSO (control) or the different peptides at the concentrations indicated (peptide). γ-secretase inhibitor (10 μM) was included as a positive control for Aβ inhibition. After the reaction, samples were analyzed by SDS-PAGE followed by western blotting using an antibody recognizing Aβ. […]
Fixed amounts of recombinant APP-C99 are mixed with cleared cell extracts (for example extracted with Triton X100, CHAPS, CHAPSO or Nonidet p40) and incubated overnight at 37° C. or 4° C. De novo formed Aβ is monitored by SDS/PAGE combined with western blotting. […]

T1 sequence (Q96BI3 whole entry, other chains not shown): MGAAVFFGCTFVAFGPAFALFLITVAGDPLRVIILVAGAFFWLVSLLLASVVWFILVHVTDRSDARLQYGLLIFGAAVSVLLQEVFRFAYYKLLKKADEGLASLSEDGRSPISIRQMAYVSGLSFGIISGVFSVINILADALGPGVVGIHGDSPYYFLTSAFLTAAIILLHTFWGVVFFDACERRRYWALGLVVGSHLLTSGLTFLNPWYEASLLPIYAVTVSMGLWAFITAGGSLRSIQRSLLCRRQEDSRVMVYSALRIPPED
T1 sequence (Q92542 34-709, other chains not shown, further chain): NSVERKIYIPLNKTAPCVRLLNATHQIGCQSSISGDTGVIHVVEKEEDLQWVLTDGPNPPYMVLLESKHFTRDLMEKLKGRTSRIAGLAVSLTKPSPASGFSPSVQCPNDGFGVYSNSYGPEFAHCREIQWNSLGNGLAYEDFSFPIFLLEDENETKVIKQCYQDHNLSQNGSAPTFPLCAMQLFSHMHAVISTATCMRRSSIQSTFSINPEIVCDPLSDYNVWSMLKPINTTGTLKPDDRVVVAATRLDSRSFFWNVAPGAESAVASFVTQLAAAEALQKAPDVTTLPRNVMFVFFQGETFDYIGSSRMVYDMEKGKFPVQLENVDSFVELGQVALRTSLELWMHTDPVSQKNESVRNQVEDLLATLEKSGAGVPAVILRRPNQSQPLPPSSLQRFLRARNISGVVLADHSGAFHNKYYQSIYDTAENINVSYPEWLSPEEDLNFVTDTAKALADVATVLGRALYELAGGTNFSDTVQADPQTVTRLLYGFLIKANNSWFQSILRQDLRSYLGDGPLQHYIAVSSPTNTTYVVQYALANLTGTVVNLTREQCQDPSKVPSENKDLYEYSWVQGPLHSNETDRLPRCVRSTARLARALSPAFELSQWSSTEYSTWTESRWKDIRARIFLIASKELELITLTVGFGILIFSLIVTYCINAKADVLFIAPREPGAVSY
T1 sequence (Q9NZ42 whole entry, other chains not shown, further chain): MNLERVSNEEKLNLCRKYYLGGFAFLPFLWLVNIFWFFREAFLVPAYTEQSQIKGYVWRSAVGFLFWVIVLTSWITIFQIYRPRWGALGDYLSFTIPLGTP

Substance	inhibition of in vitro Aβ production
NH2-ATVIVITLVMLK KKQ-TMR-COOH [SEQ ID NO:12]	highest inhibition
NH2-VVIATVIVITLVMLKKKQ-TMR-COOH [SEQ ID NO:7]	highest inhibition

— patent publication US7198903B2, “Binding domains between presenilins and their substrates as targets for drug screening” (Vlaams Interuniversitair Instituut voor Biotechnologie VZW, priority 2001, dated 2007)
